In experiment [1] the test system is egg CAM (chorioallantoic membranes). Kind of experiment: Egg CAM assay, angiogenesis induced by VEGF. Format: in vivo. As to the method: Fertilized eggs (Pulmuwon, Korea) were incubated at 37° C. under a humidity of 90%. After three days of culturing, the eggs were deprived of about 2 ml of albumin. After four days, eggs were partially deprived of the sheath to make a window with a size of 2×2 cm.
After VEGF (10 ng/egg) was mixed with various amounts of peptides or other samples, 3 μl of each mixture was dropped onto ¼ fraction pieces of thermanox coverslips (Nunc) and dried. The pieces were placed on CAM of 9-day embryonic eggs.
Two days later, the samples were independently observed under anatomical microscopes by two different persons to determine whether new blood vessels are induced by the dropped samples or not. In this regard, the experiment was repeated at least three times using 10 or more eggs per sample and the results are given in Table 5, below.

Experiment [2] deals with VEGF receptors present on the surface of HUVEC. Kind of experiment: Binding of 125I-labeled VEGF165 to HUVEC, Scatchard analysis. Further details: species or system human. As to the method: First, HUVEC (human umbilical vein endothelial cells) (Clonetics) were placed on gelatin-coated 100 mm dishes (Falcon) containing a vascular endothelial cell culture medium (Medium 199+20% BCS, 5 μg/ml of heparin, 6 μg/ml of endothelial cell growth supplement, 5 ng/ml of basic fibroblast growth factor) and cultured at 37° C. in a CO2 incubator for animal cell culture. After a certain period of time, the cells were treated with trypsin/EDTA. After centrifugation, the cells harvested were suspended in a fresh, vascular endothelial cells culture medium and aliquoted at a density of 5×10^4 cell/well to a 24 well plate (Costar Co.). […] Thereafter, to quantitatively determine the amount of the labeled VEGF which bound to receptors present on the surface of the vascular endothelial cells, the cells were treated with 0.5 ml of a lysis solution (20 mM Tris-HCl, pH 7.4/1% TritonX-100) for 20 min, followed by measuring the resulting lysate for radioactivity with the aid of a γ-counter. As for the non-specific binding, it was determined from a cell group cultured in the presence of a mixture of the labeled VEGF and non-labeled VEGF in a molar ratio of 1:100. […]
The measurement results are shown in FIGS. 1a and 1b in which radioactivity is plotted versus time and concentration, respectively.

In experiment [3] the test system is rabbit corneal domes. Briefly: Rabbit corneal dome angiogenesis induced by VEGF. It counts as in vivo. The conditions noted are these: VEGF 10 ng with 1 μg peptide, 16 days after operation. How it is done:
To confirm the test results obtained from egg CAM, an experiment was performed using rabbit corneal domes for in vivo angiogenesis testing. New Zealand male rabbits weighing 3 kg (SLC, Japan) were subjected to intramuscular ketamine anesthesia (44 mg/kg), followed by dissecting the corneal domes to a length of 3 mm by use of an operating knife (Bard-Parker—#11). […] 16 days after the operation, angiogenesis was obviously observed and photographs were taken of blood vessels newly formed in the corneal dome (Nikon, FS-2, Japan).

The test system of experiment [4] is HM7 (human colon carcinoma cell line). Briefly: Subcutaneous HM7 tumor growth in athymic nude mice. The conditions noted are these: after 15 days of subcutaneous injection. It counts as in vivo. How it is done:
From the next day, a solution of each peptide in PBS (0.5 μg/100 μl/day) was subcutaneously injected to the mice for 15 days. Sizes of the tumors thus formed were periodically measured while tumor volumes were calculated according to the following formula: Tumor Size=0.5×(Diameter)^2×length

Experiment [5] shares this test system. Briefly: Liver metastasis of HM7 cells transplanted into the spleen of nude mice. It counts as in vivo. An excerpt: In order to conduct an experiment concerning the metastasis of cancer cells to the liver, cancerous cells were transplanted into the spleen. In this regard, after being anesthetized with diethyl ether, 4-week-old male mice (athymic nude mice, BALB/c/nu/nu, Charles River, Japan) underwent flank incision. […] Four weeks after the injection, the liver was excised from each mouse and measured for weight and the size and number of metastatic nodules formed. Each test group was composed of 6-7 mice. In a student's t-test, a p value less than 0.05 was regarded as being statistically significant. In the test using tetrazolium dye (cell titer 96 Non-radioactive Proliferation Assay Kit, Promega), each peptide was evaluated to have no influence on the growth of the cancer cells (5×10^3 cells/well), so that the possibility that the toxicity of the peptide themselves might inhibit the growth and metastasis of cancer cells could be excluded.

In experiment [6] the target is VEGF receptors present on the surface of HUVEC (human umbilical vein endothelial cells) (human). Kind of experiment: Scatchard analysis of 125I-VEGF165 binding to HUVEC; the kind of receptor at about 2,000 per cell.
Experiment [7] deals with T1, VEGF (Homo sapiens, UniProt P15692).
T1 sequence (P15692 27-191 isoform P15692-4): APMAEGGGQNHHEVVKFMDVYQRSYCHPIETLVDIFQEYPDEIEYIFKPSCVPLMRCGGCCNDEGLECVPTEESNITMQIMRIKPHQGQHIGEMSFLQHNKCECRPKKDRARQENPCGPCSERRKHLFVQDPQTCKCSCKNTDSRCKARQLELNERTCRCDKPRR
Kind of experiment: Inhibition of 125I-labeled VEGF binding to its receptors on HUVEC. The conditions noted are these: 10 μM peptide (FIG. 6). How it is done: Then, the cells were transferred to a medium (Medium 199/25 mM HEPES, pH 7.4/0.1% bovine serum albumin) containing 0.2 ng of ^125I-labeled VEGF and various concentrations of peptides or combinatorial peptide libraries and reacted at 4° C. for 3 hours. The cells were washed twice with the same medium and once with PBS containing 0.1% albumin to remove the labeled VEGF which still remained uncombined. Thereafter, to quantify the labeled VEGF which bound to receptors present on the surface of the vascular endothelial cells, the cells were treated with 0.5 ml of a lysis solution (20 mM Tris-HCl, pH 7.4/1% TritonX-100) for 20 min, followed by measuring the resulting lysate for radioactivity with the aid of a γ-counter.
The sequence of each peptide was indirectly decided through the analysis of amino acid compositions and its concentration was determined, after which 12 peptides were assayed for antagonism toward VEGF binding at various concentrations (1, 4, 10, and 20 μM/sequence).

For experiment [8], the system named is HT1080 (human fibrosarcoma). Kind of experiment: Egg CAM assay, angiogenesis induced by VEGF-secreting cancer cells. It counts as in vivo. The conditions noted are these: egg CAM, 10^5 HT1080 cells/egg with 0.1 μg peptide; for Angiogenic activity(%): (standard deviation). How it is done: An experiment using egg CAM was carried out to confirm the inhibitory activity of the screened peptides against the angiogenesis induced by cancer cells, which secrete VEGF. Fertilized eggs were deprived of albumin and windows were formed on the eggs as in above. 10^5 cells of HT1080 (human fibrosarcoma) were mixed with 7.5 μg of Type I collagen (rat tail, Beckton Dickinson, USA) within a volume of 5 μl and dropped onto ¼ fraction pieces of Thermanox coverslips to give collagen sponges. After being covered with the collagen sponges, 10-day embryonic egg CAM was incubated at 37° C. for 3 days. Blood vessels induced by the cancer cells were observed and photographed as in above (see Table 6 and FIG. 12).

The target of experiment [9] is T2, ^125I-labeled VEGF165, P15692.
T2 chain: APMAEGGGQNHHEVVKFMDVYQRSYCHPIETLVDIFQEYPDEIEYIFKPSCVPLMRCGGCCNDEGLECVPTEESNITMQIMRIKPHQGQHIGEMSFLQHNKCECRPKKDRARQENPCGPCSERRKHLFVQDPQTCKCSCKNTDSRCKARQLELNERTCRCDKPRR
Briefly: inhibition of 125I-VEGF binding to its receptors on HUVEC, gamma counting.

In experiment [10] the target is T3, VEGF (R&D systems), P15692.
T3 chain: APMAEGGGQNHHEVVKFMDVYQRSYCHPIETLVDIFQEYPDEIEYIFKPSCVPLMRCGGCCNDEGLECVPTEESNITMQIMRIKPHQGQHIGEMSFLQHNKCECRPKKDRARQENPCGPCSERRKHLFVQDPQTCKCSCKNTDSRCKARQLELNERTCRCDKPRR
Briefly: cell-based or functional assay.

For experiment [11], the target named is T4, VEGF secreted from HT1080 human fibrosarcoma cells (human), P15692.
T4 chain: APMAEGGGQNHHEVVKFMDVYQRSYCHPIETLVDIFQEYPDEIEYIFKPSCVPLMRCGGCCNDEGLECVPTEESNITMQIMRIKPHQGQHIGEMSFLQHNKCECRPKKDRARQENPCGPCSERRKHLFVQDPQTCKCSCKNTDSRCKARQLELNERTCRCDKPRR
Briefly: cell-based or functional assay.

In experiment [12] the target is T2, ^125I-labeled VEGF165, P15692. Kind of experiment: 125I-VEGF on plate-fixed peptide, competition; KD computed from the IC50.
The mark [13] stands for this setting: VEGF 10 ng/egg alone or with 1 μg sample.
Setting [14] is: VEGF 10 ng/egg alone or with 1 μg sample, (standard deviation).

Where “and” joins values, the source holds several entries; their conditions need not be identical. Equal entries are not always repeated. Entries after “also recorded” stand apart in the source; their conditions may differ. Where two headings read alike, the source gives them in different places.

These results are taken from patent US7291601B1, “Arginine-rich anti-vascular endothelial growth factor peptides that inhibit growth and metastasis of human tumor cells by blocking angiogenesis” (Korea Greencross Corp., priority 1999, dated 2007).

On to VEGF, for which the “Angiogenic activity eggs/total eggs” value in experiment [1] (setting [13]) is given as 9/27. Moreover, the “Angiogenic activity(%)” value in experiment [1] (setting [14]) is 33.6% and 33.6(3.8) %.

Turning to “^125I-labeled VEGF: radioactive iodine-labeled VEGF165 used as ligand”, the Kd (usually the equilibrium constant for the complex coming apart) in experiment [2] (receptor density about 2,000 per cell, read-out: dissociation constant (KD), first kind of receptor) amounted to 0.003 nM; in experiment [2] (receptor density about 6,000 per cell, read-out: dissociation constant (KD), other kind of receptor), 0.05 nM.

Take “EEFDDA: control peptide of an amino acid sequence EEFDDA [reference compound]”: the “VEGF-induced angiogenesis in the rabbit corneal dome” value in experiment [3] is “had no influence on the VEGF-induced angiogenesis; also recorded: obvious angiogenesis”. The “effect on tumor size / growth of human colon carcinoma cells in mice” value in experiment [4] was “no effects”. In addition, the “metastasis of cancer cells versus tumor injected alone” value in [5] (mouse, in vivo) is given as “No difference in metastasis”.

In [6], “^125I-labeled VEGF165 (from UniProt P15692 27-191) (ligand)” displayed a Kd of 3 pM.

As for “KKKKKK: control peptide consisting of only lysine [reference compound]”, the “inhibition between labeled VEGF and its receptors” value in [7] is given as “no inhibition was observed”. The “Angiogenic activity eggs/total eggs” value in experiment [1] (setting [13]) is recorded as 8/25; in [8], 14/22. Further, the “Angiogenic activity(%)” value in [8] is reported as 59.0(1.4) %; in experiment [8] (listed as control peptide), 59%. Besides, the “metastasis, % of the control group to which only PBS was injected” value in [5] (weak inhibitory activity, measure not specified) is recorded as “about 80%”.

protamine [reference compound]: the “Angiogenic activity eggs/total eggs” value in [1] (setting [13]) was 5/26. The “Angiogenic activity(%)” value is 18.8(4.1) % and 18.4(4.1) % in experiment [1] (setting [14]); “about 18.8%” in experiment [1] (VEGF with protamine 50 μg/egg as stated in text).

As to RRKRKR (modifications not checked) [Table 4 peptide 2 (RRKRKR)], the half-maximal inhibitory concentration (IC50) (as a rule, the concentration that gives 50% inhibition) in [9] was determined as 6 µM. This lies in the single-digit micromolar range.

Consider RKRRRR (modifications not checked) [Table 4 peptide 10 (RKRRRR)], for which the IC50 in experiment [9] was determined as 7.8 µM.

With H-RKKRKR-NH2 [peptide of sequence 2 (SEQ ID NO: 2) (NH2-Arg-Lys-Lys-Arg-Lys-Arg-CONH2)], in experiment [10], the Angiogenic activity(%), egg CAM, VEGF 10 ng + peptide 1 µg (VEGF alone 33.6, water 10.8) is 15.6%. Moreover, in experiment [11], the Angiogenic activity(%), egg CAM, HT1080 cancer cells + peptide 0.1 µg (cancer cell alone 76.0, no treatment 18.5) stood at 43%. Moreover, the IC50 in experiment [9] was 3.4 µM. In experiment [12], the Kd worked out at 2 µM.

In [9], RKKRRR (modifications not checked) [Table 4 peptide 7 (RKKRRR)] gave an IC50 of 6.5 µM.

Take H-RRKRRR-NH2 [peptide of sequence 1 (SEQ ID NO: 1) (NH2-Arg-Arg-Lys-Arg-Arg-Arg-CONH2)]: the Angiogenic activity(%), egg CAM, VEGF 10 ng + peptide 1 µg (VEGF alone 33.6, water 10.8) in experiment [10] amounted to 15.6%. Further, in experiment [11], the Angiogenic activity(%), egg CAM, HT1080 cancer cells + peptide 0.1 µg (cancer cell alone 76.0, no treatment 18.5) turned out to be 36%. The molecule further had an IC50 in experiment [9] of 2 µM. This molecule had a Kd in experiment [12] of 5 µM.

As for H-RRRRRR-NH2 [peptide of sequence 3 (SEQ ID NO: 3) (NH2-Arg-Arg-Arg-Arg-Arg-Arg-CONH2)], in experiment [10], the Angiogenic activity(%), egg CAM, VEGF 10 ng + peptide 1 µg (VEGF alone 33.6, water 10.8) worked out at 15.6%. Also, in experiment [11], the Angiogenic activity(%), egg CAM, HT1080 cancer cells + peptide 0.1 µg (cancer cell alone 76.0, no treatment 18.5) stood at 41%. Also, the IC50 in [9] was 3.8 µM. The Kd in experiment [12] was 22 µM.

In turn, RKRRKR (modifications not checked) [Table 4 peptide 4 (RKRRKR)] registered an IC50 in experiment [9] of 8.5 µM.
